Measured values reported in the supplement of paper PMC9233669.
Fewer inactive variants are shown than the library holds.

What was measured:
biotinyl-Phe-oxazolone = experiment: self-aminoacylation, catalytic enhancement (BFO) (fold over background); higher = more active; k-Seq, kA / k0A0; sequences stand for … in GGGAAUGGAUCCACAUCUACGAAUUC…UUCACUGCAGACUUGACGAAGCUG
In short: (§1)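 Working in 50 μL HEPES/NaCl/KCl/MgCl2/CaCl2 buffer with 5% acetonitrile at pH 6.9–7.0, mutagenized RNA pools (0.43 μM; 21-nt variable region) were reacted with 2–1250 μM of each biotinyl-aminoacyl-oxazolone for 90 minutes at room temperature. Streptavidin capture followed, with quantification by triplicate qPCR and Illumina sequencing. Catalytic enhancement is reported as median kA over the uncatalyzed rate, the low-activity peak of a bimodal Gaussian fit to the data.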

biotinyl-Ile-oxazolone = experiment: self-aminoacylation, catalytic enhancement (BIO) (fold over background); higher = more active; k-Seq, kA / k0A0; sequences stand for … in GGGAAUGGAUCCACAUCUACGAAUUC…UUCACUGCAGACUUGACGAAGCUG
In short: as §1

biotinyl-Met-oxazolone = experiment: self-aminoacylation, catalytic enhancement (BMO) (fold over background); higher = more active; k-Seq, kA / k0A0; sequences stand for … in GGGAAUGGAUCCACAUCUACGAAUUC…UUCACUGCAGACUUGACGAAGCUG
In short: as §1

biotinyl-Val-oxazolone = experiment: self-aminoacylation, catalytic enhancement (BVO) (fold over background); higher = more active; k-Seq, kA / k0A0; sequences stand for … in GGGAAUGGAUCCACAUCUACGAAUUC…UUCACUGCAGACUUGACGAAGCUG
In short: as §1

biotinyl-Leu-oxazolone = experiment: self-aminoacylation, catalytic enhancement (BLO) (fold over background); higher = more active; k-Seq, kA / k0A0; sequences stand for … in GGGAAUGGAUCCACAUCUACGAAUUC…UUCACUGCAGACUUGACGAAGCUG
In short: as §1

biotinyl-Trp-oxazolone = experiment: self-aminoacylation, catalytic enhancement (BWO) (fold over background); higher = more active; k-Seq, kA / k0A0; sequences stand for … in GGGAAUGGAUCCACAUCUACGAAUUC…UUCACUGCAGACUUGACGAAGCUG
In short: as §1

Sequence | self-aminoacylation (biotinyl-Phe-oxazolone) | self-aminoacylation (biotinyl-Ile-oxazolone) | self-aminoacylation (biotinyl-Met-oxazolone) | self-aminoacylation (biotinyl-Val-oxazolone) | self-aminoacylation (biotinyl-Leu-oxazolone) | self-aminoacylation (biotinyl-Trp-oxazolone)
CUACUUCAAACAAUGGGUCUA [Fam1A.1 aminoacylation ribozyme variant] | 0.65 | 0.847 | 0.611 | 0.756 | 0.638 | 0.487
CUACUUCAAACAAUGGGUCUC [Fam1A.1 aminoacylation ribozyme variant] | 0.715 | 0.688 | 0.609 | 0.658 | 0.569 | 0.428
CUACUUCAAACAAUUGGACUG [Fam1A.1 aminoacylation ribozyme variant] | 0.671 | 0.709 | 0.633 | 0.641 | 0.664 | 0.443
CUACUUCAAACAAUUGGUUUG [Fam1A.1 aminoacylation ribozyme variant] | 0.803 | 0.757 | 0.676 | 0.7 | 0.721 | 0.708
CUACUUCAAACAAUUGUUCUG [Fam1A.1 aminoacylation ribozyme variant] | 0.673 | 0.619 | 0.633 | 0.636 | 0.611 | 0.367
CUACUUCAAACACGCGGUCUG [Fam1A.1 aminoacylation ribozyme variant] | 0.711 | 1.61 | 1.64 | 1.36 | 1.42 | 1.74
CUACUUCAAACAGUCGCUCUG [Fam1A.1 aminoacylation ribozyme variant] | 1.68 | 1.12 | 1.45 | 1.25 | 1.75 | 1.09
CUACUUCAAACAGUCGGACUG [Fam1A.1 aminoacylation ribozyme variant] | 0.77 | 0.853 | 0.697 | 0.826 | 0.564 | 0.682
CUACUUCAAACAGUCGUUCUG [Fam1A.1 aminoacylation ribozyme variant] | 0.701 | 0.579 | 0.589 | 0.611 | 0.475 | 0.472
CUACUUCAAACAGUCUGUCUG [Fam1A.1 aminoacylation ribozyme variant] | 0.663 | 0.608 | 0.515 | 0.597 | 0.568 | 0.337
CUACUUCAAACAGUUGGUCUG [Fam1A.1 aminoacylation ribozyme variant] | 0.982 | 0.893 | 0.538 | 0.736 | 0.79 | 0.595
CUACUUCAAACAUACGGUCUG [Fam1A.1 aminoacylation ribozyme variant] | 0.561 | 0.776 | 0.565 | 0.763 | 0.662 | 0.556
CUACUUCAAACAUUAGGUCUG [Fam1A.1 aminoacylation ribozyme variant] | 0.696 | 0.813 | 0.617 | 0.747 | 0.6 | 0.535
CUACUUCAAACAUUCGGUCAG [Fam1A.1 aminoacylation ribozyme variant] | 0.674 | 0.901 | 0.886 | 0.992 | 0.861 | 0.688
CUACUUCAAACAUUCGGUCUC [Fam1A.1 aminoacylation ribozyme variant] | 0.796 | 0.986 | 0.849 | 0.975 | 0.806 | 0.715
CUACUUCAAACCAACGGUCUG [Fam1A.1 aminoacylation ribozyme variant] | 1.44 | 0.786 | 0.68 | 1.02 | 0.587 | 0.556
CUACUUCAAACCAGCGGUCUG [Fam1A.1 aminoacylation ribozyme variant] | 0.715 | 0.921 | 0.722 | 1.13 | 1.09 | 0.677
CUACUUCAAACCAUCGGACUG [Fam1A.1 aminoacylation ribozyme variant] | 0.578 | 0.8 | 0.669 | 0.873 | 0.747 | 0.444
CUACUUCAAACCAUCGGUCCG [Fam1A.1 aminoacylation ribozyme variant] | 0.607 | 0.761 | 0.868 | 0.922 | 0.996 | 0.99
CUACUUCAAACGACCGGUCUG [Fam1A.1 aminoacylation ribozyme variant] | 0.832 | 0.601 | 0.698 | 0.74 | 0.621 | 0.229
CUACUUCAAACGAUCCGUCUG [Fam1A.1 aminoacylation ribozyme variant] | 0.594 | 0.783 | 0.958 | 0.808 | 0.787 | 0.755
CUACUUCAAACGAUCGCUCUG [Fam1A.1 aminoacylation ribozyme variant] | 1.11 | 0.842 | 0.689 | 0.838 | 0.654 | 0.678
CUACUUCAAACGAUCGGGCUG [Fam1A.1 aminoacylation ribozyme variant] | 1.11 | 1.49 | 1.09 | 1.45 | 1.23 | 1.28
CUACUUCAAACGAUCGGUCUA [Fam1A.1 aminoacylation ribozyme variant] | 0.678 | 0.757 | 0.744 | 0.731 | 0.615 | 0.594
CUACUUCAAACGAUGGGUCUG [Fam1A.1 aminoacylation ribozyme variant] | 0.674 | 0.746 | 0.58 | 1 | 0.764 | 0.62
CUACUUCAAACUAGCGGUCUG [Fam1A.1 aminoacylation ribozyme variant] | 1.25 | 0.932 | 0.547 | 0.803 | 0.79 | 0.732

Sequence | self-aminoacylation (biotinyl-Phe-oxazolone) | self-aminoacylation (biotinyl-Ile-oxazolone) | self-aminoacylation (biotinyl-Met-oxazolone) | self-aminoacylation (biotinyl-Val-oxazolone) | self-aminoacylation (biotinyl-Leu-oxazolone) | self-aminoacylation (biotinyl-Trp-oxazolone)
CUACUUCAAAGAACCGGUCUG [Fam1A.1 aminoacylation ribozyme variant] | 0.687 | 0.994 | 0.715 | 0.815 | 0.847 | 0.734
CUACUUCAAAGAAGCGGUCUG [Fam1A.1 aminoacylation ribozyme variant] | 1.17 | 1.09 | 1.01 | 0.988 | 0.82 | 0.832
CUACUUCAAAGAAUCCGUCUG [Fam1A.1 aminoacylation ribozyme variant] | 0.744 | 1.06 | 0.942 | 0.915 | 1.07 | 0.738
CUACUUCAAAGAAUCGGACUG [Fam1A.1 aminoacylation ribozyme variant] | 1.29 | 0.992 | 0.91 | 0.808 | 0.818 | 0.932
CUACUUCAAAGUAUCGGUCUG [Fam1A.1 aminoacylation ribozyme variant] | 1.44 | 0.979 | 0.824 | 0.975 | 0.941 | 0.979
CUACUUCAAAUAAUCGAUCUG [Fam1A.1 aminoacylation ribozyme variant] | 1.94 | 0.669 | 0.534 | 0.592 | 0.495 | 0.839
CUACUUCAAAUAAUCGGUCCG [Fam1A.1 aminoacylation ribozyme variant] | 2.68 | 0.585 | 0.599 | 0.657 | 0.654 | 1.76
CUACUUCAACCAAUAGGUCUG [Fam1A.1 aminoacylation ribozyme variant] | 1.05 | 0.947 | 0.703 | 0.777 | 0.743 | 0.753
CUACUUCAACCAAUCGGGCUG [Fam1A.1 aminoacylation ribozyme variant] | 7.63 | 1.71 | 1.24 | 1.22 | 1.68 | 6.74
CUACUUCAACCAAUCGGUCUC [Fam1A.1 aminoacylation ribozyme variant] | 23.8 | 0.904 | 0.76 | 0.98 | 1.19 | 12.9
CUACUUCAACCAAUCGGUCUU [Fam1A.1 aminoacylation ribozyme variant] | 16 | 1.02 | 0.975 | 0.934 | 1.32 | 8.43
CUACUUCAAGCAAUCGGUCUU [Fam1A.1 aminoacylation ribozyme variant] | 6.92 | 1.07 | 0.87 | 1.06 | 0.97 | 4.63
CUACUUCAAGCACUCGGUCUG [Fam1A.1 aminoacylation ribozyme variant] | 2.08 | 1.23 | 0.971 | 1.3 | 1.17 | 1.28
CUACUUCAAGCUAUCGGUCUG [Fam1A.1 aminoacylation ribozyme variant] | 0.617 | 0.839 | 0.942 | 0.892 | 0.689 | 0.43
CUACUUCAAUCAACCGGUCUG [Fam1A.1 aminoacylation ribozyme variant] | 0.9 | 0.925 | 0.525 | 0.806 | 0.729 | 0.663
CUACUUCAAUCAUUCGGUCUG [Fam1A.1 aminoacylation ribozyme variant] | 0.652 | 1.1 | 0.805 | 0.992 | 0.896 | 1.13
CUACUUCACAAAAUCGGUCUG [Fam1A.1 aminoacylation ribozyme variant] | 0.608 | 0.985 | 0.863 | 0.831 | 0.823 | 0.739
CUACUUCACACAACCGGUCUG [Fam1A.1 aminoacylation ribozyme variant] | 1.07 | 0.858 | 1.2 | 1.01 | 0.892 | 0.778
CUACUUCACACAAUCGAUCUG [Fam1A.1 aminoacylation ribozyme variant] | 0.726 | 0.888 | 0.686 | 0.677 | 0.784 | 0.691
CUACUUCACAGAAUCGGUCUG [Fam1A.1 aminoacylation ribozyme variant] | 1.11 | 1.03 | 1.05 | 1.02 | 1.1 | 0.917
CUACUUCAGACAAUCCGUCUG [Fam1A.1 aminoacylation ribozyme variant] | 1.86 | 0.902 | 0.675 | 0.826 | 0.963 | 1.23
CUACUUCAGACAAUCGGUCCG [Fam1A.1 aminoacylation ribozyme variant] | 0.81 | 0.811 | 1 | 0.695 | 1.01 | 1.38
CUACUUCAGACAAUCGGUCUU [Fam1A.1 aminoacylation ribozyme variant] | 1.11 | 0.967 | 0.904 | 0.961 | 0.919 | 0.663
CUACUUCAGACGAUCGGUCUG [Fam1A.1 aminoacylation ribozyme variant] | 0.484 | 0.727 | 1.24 | 1.01 | 0.954 | 0.788
CUACUUCAUACAACCGGUCUG [Fam1A.1 aminoacylation ribozyme variant] | 0.504 | 0.925 | 0.621 | 0.84 | 0.751 | 0.415
